The target of this assay is RELA (wild type), NF-kB subunit p65 (UniProt Q04206 1-551). Put plainly: cell-based or functional assay.
Chain of RELA (wild type), NF-kB subunit p65 (Q04206 whole entry): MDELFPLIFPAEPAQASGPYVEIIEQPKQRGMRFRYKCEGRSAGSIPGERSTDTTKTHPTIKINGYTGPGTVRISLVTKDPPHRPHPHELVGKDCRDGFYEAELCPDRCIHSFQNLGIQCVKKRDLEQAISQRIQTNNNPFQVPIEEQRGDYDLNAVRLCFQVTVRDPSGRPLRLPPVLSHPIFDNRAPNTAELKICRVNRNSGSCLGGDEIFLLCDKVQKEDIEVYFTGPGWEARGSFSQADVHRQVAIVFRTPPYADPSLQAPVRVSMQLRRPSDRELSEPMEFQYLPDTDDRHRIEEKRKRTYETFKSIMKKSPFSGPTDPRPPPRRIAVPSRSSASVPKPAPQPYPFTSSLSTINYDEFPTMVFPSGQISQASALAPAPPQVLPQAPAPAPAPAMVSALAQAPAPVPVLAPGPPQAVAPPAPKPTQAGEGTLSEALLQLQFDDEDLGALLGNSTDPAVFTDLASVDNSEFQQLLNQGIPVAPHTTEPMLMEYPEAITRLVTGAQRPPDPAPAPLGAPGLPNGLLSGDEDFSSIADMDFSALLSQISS

B1: TWIST1 E193A (natural protein, human, UniProt Q15672 1-202, looked up)
chain: MMQDVSSSPVSPADDSLSNSEEEPDRQQPPSGKRGGRKRRSSRRSAGGGAGPGGAAGGGVGGGDEPGSPAQGKRGKKSAGCGGGGGAGGGGGSSSGGGSPQSYEELQTQRVMANVRERQRTQSLNEAFAALRKIIPTLPSDKLSKIQTLKLAARYIDFLYQVLQSDELDSKMASCSYVAHERLSYAFSVWRMAGAWSMSASH
As to B1, the “IL-8 promoter driven firefly luciferase (dual luciferase assay) in Ovcar4 cells, reduction against wild type TWIST1” value stood at 50%.

B2: TWIST1 W190A (natural protein, human, UniProt Q15672 1-202, looked up)
chain: MMQDVSSSPVSPADDSLSNSEEEPDRQQPPSGKRGGRKRRSSRRSAGGGAGPGGAAGGGVGGGDEPGSPAQGKRGKKSAGCGGGGGAGGGGGSSSGGGSPQSYEELQTQRVMANVRERQRTQSLNEAFAALRKIIPTLPSDKLSKIQTLKLAARYIDFLYQVLQSDELDSKMASCSYVAHERLSYAFSVARMEGAWSMSASH
As to B2, the “IL-8 promoter driven firefly luciferase (dual luciferase assay) in Ovcar4 cells, reduction against wild type TWIST1” value is 50%.

B3: TWIST1 R191A (natural protein, human, UniProt Q15672 1-202, looked up)
chain: MMQDVSSSPVSPADDSLSNSEEEPDRQQPPSGKRGGRKRRSSRRSAGGGAGPGGAAGGGVGGGDEPGSPAQGKRGKKSAGCGGGGGAGGGGGSSSGGGSPQSYEELQTQRVMANVRERQRTQSLNEAFAALRKIIPTLPSDKLSKIQTLKLAARYIDFLYQVLQSDELDSKMASCSYVAHERLSYAFSVWAMEGAWSMSASH
For B3, the “IL-8 promoter driven firefly luciferase (dual luciferase assay) in Ovcar4 cells, reduction against wild type TWIST1” value was found to be 50%.

The values are drawn from article PMC5345230, “Disruption of TWIST1-RELA binding by mutation and competitive inhibition to validate the TWIST1 WR domain as a therapeutic target” (BMC Cancer, 2017).
